Test [1] addresses LRP6 (as used in Example 11) (UniProt O75581 20-1613, limits assumed). Nature of the test: competition with 125I-DKK1 for LRP6.
The target in test [2] is LRP5 (as used in Example 11) (UniProt O75197 32-1615, limits assumed). Nature of the test: competition with 125I-Mesd for LRP5.
Test [3] addresses T1, HA-tagged LRP6 on LRP6-transduced HT1080 cells (UniProt O75581 20-1613, limits assumed).
T1 construct: whole, on cells; the only LRP6 cDNA named in the materials is human; also called mature LRP6 at the cell surface; cell surface LRP6; not shown: HA tag
The test is described as follows: conditioned medium on LRP6-transduced HT1080 cells, anti-Myc immunofluorescence. The procedure: To facilitate immunodetection, a c-Myc epitope was included at the C-terminus. The integrity of the subcloned DNA sequence was confirmed by DNA sequencing. Human DKK1-conditioned media were produced by transient transfection of HEK293 cells with pcDNADKK1-Myc in serum-free medium, and allowed to bind to LRP6-transduced HT1080 cells and control cells at room temperature for 60 minutes in the absence or presence of 1 μM Mesd. Cells were then fixed in 4% paraformaldehyde, labeled with anti-Myc monoclonal antibody and detected with Alexa-488 goat anti-mouse IgG. The immunofluorescence was detected by a laser-scanning confocal microscope (Olympus Fluoview 500).
RAP is a receptor antagonist for members of the LDLR family, and is able to inhibit the binding of most known ligands of the LDLR family members. DKK1 is an LRP6-specific ligand and antagonist. […] In these experiments, Serum-free conditioned medium was harvested from HEK293 cells transiently transfected with cDNA for human Myc-DKK1 and allowed to bind to LRP6-transduced HT1080 cells (B,C) and control cells (A) in the absence (A,B) or presence (C) of 1 μM Mesd. Cell-surface-bound Myc-tagged DKK proteins were fixed and detected by immunofluorescence staining with anti-Myc antibody. (D) DKK1 binding to cell surface LRP6 is inhibited by Mesd. […] (E) LRP6-mediated DKK1 degradation is inhibited by Mesd. […]

Test [4] has as its target T1, HA-tagged LRP6 on LRP6-transduced …. Nature of the test: 125I-DKK1 (5 nM) binding to LRP6-transduced HT1080 cells, 3 h at 4 C. The protocol:
RAP is a receptor antagonist for members of the LDLR family, and is able to inhibit the binding of most known ligands of the LDLR family members. DKK1 is an LRP6-specific ligand and antagonist. […] In these experiments, Serum-free conditioned medium was harvested from HEK293 cells transiently transfected with cDNA for human Myc-DKK1 and allowed to bind to LRP6-transduced HT1080 cells (B,C) and control cells (A) in the absence (A,B) or presence (C) of 1 μM Mesd. Cell-surface-bound Myc-tagged DKK proteins were fixed and detected by immunofluorescence staining with anti-Myc antibody. (D) DKK1 binding to cell surface LRP6 is inhibited by Mesd. […] (E) LRP6-mediated DKK1 degradation is inhibited by Mesd. LRP6-mediated […] (5 nM) degradation was carried out for 4 hours at 37° C. in the absence or presence of 500 nM RAP or 500 nM Mesd. Values are the means of triple determinations with the s.d. indicated by error bars. Bar, 10 μm. As expected, Myc-tagged DKK1 binds to LRP6 cells (FIG. 9B) but not to the control cells (FIG. 9A).

Test [5] has the same target. Nature of the test: 125I-Mesd (150-195) (5 nM) binding to LRP6-transduced HT1080 cells, 3 h at 4 C. The procedure:
In this example, a truncated Mesd mutant containing the last 45 amino acids of C-terminal region was generated (FIG. 3A) and its binding affinity for LRP6 was then analyzed. […] (A) Binding analyses of ¹²⁵I-Mesd and its mutant Mesd (150-195) (5 nM) to LRP6-transduced HT1080 cells and control cells. (B) Binding analyses of ¹²⁵I-Mesd and its mutant Mesd (150-195) (5 nM) to LRP6-transduced HT1080 cells. Assays were carried out for 3 hours at 4° C. in the absence or presence of 500 nM Mesd or its mutant. Values are the means of triple determinations with the s.d. indicated by error bars.

Test [6] shares this target. The test is described as follows: binding of truncated Mesd mutant to cell surface LRP6.
Test [7] has the same target. Nature of the test: 125I-Mesd saturation binding to LRP6-transduced HT1080 cells, 3 h at 4 C, Scatchard analysis. The procedure: To examine whether Mesd binds with high affinity to most members of the LDLR family at the cell surface, we performed cell surface ligand binding experiments with cells stably transduced with LRP6 cDNA. Human HT1080 cells, which express undetectable levels of LRP6, were transduced with a viral vector alone (pLNCX2) or with vector containing LRP6 cDNA (Li, Y., Oncogene 23: 9129-9135, 2004) and used for ¹²⁵I-Mesd binding (FIG. 1A). ¹²⁵I-Mesd (5 nM) reached maximal binding after 2 hours incubation at 4° C. with LRP6-expressing HT1080 cells (FIG. 1A). Inclusion of excess unlabeled Mesd (500 nM) completely eliminated this binding.
(A) Time course of ¹²⁵I-Mesd (5 nM) binding to LRP6-transduced HT1080 cells and the control cells. Assay was carried out for the indicated periods at 4° C. in the absence (total) or presence of 500 nM Mesd (non-specific). (B) Saturation binding of ¹²⁵I-Mesd to LRP6-transduced HT1080 cells and the control cells. Assay was carried out at indicated concentrations for 3 hours at 4° C. in the absence (total) or presence (non-specific) of 500 nM Mesd. (C) Scatchard plots of data in B. All values are the average of triple determinations with the s.d. indicated by error bars.

No end group written: not given here. Some results are limits rather than exact numbers.

T1 sequence (O75581 20-1613 limits assumed): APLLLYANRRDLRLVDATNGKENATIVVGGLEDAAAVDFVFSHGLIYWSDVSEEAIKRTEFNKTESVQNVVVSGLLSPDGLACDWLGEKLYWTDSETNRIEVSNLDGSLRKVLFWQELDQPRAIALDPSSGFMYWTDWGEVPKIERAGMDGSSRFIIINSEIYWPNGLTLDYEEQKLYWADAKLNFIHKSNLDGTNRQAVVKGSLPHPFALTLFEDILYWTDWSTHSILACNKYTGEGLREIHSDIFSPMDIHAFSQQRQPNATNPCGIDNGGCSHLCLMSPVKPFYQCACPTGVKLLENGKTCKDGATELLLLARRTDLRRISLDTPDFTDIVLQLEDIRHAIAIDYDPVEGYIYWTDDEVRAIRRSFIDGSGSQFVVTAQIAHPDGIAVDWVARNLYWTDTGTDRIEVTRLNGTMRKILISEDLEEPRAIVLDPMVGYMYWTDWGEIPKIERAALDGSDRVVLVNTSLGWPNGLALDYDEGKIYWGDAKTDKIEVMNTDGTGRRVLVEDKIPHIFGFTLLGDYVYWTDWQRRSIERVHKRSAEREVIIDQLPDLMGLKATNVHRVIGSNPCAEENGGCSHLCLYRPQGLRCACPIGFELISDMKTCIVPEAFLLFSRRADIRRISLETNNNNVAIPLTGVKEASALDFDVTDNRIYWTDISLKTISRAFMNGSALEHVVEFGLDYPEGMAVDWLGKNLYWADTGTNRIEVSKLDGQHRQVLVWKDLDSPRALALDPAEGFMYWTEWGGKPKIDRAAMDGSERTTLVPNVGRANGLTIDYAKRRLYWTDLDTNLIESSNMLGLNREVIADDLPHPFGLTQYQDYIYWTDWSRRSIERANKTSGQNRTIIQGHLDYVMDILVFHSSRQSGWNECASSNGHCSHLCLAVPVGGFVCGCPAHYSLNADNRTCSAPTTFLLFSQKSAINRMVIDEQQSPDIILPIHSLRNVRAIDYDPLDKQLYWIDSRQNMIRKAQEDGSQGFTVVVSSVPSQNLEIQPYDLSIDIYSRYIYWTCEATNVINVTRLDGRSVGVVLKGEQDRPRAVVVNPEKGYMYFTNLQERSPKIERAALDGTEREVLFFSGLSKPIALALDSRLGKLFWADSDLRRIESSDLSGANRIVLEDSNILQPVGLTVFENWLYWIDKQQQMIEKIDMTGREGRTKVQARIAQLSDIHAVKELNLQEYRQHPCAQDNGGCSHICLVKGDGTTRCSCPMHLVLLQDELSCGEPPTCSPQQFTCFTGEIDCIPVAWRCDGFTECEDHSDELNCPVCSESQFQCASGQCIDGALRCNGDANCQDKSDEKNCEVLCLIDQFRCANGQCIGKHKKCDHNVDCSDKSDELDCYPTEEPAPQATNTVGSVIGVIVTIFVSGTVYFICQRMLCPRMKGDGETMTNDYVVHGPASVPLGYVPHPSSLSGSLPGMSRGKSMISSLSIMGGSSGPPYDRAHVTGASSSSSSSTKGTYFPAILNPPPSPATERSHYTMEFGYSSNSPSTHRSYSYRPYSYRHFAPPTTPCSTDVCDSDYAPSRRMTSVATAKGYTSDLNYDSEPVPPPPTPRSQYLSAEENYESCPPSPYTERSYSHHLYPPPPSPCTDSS
Chain of LRP5 (as used in Example 11) (O75197 32-1615 limits assumed): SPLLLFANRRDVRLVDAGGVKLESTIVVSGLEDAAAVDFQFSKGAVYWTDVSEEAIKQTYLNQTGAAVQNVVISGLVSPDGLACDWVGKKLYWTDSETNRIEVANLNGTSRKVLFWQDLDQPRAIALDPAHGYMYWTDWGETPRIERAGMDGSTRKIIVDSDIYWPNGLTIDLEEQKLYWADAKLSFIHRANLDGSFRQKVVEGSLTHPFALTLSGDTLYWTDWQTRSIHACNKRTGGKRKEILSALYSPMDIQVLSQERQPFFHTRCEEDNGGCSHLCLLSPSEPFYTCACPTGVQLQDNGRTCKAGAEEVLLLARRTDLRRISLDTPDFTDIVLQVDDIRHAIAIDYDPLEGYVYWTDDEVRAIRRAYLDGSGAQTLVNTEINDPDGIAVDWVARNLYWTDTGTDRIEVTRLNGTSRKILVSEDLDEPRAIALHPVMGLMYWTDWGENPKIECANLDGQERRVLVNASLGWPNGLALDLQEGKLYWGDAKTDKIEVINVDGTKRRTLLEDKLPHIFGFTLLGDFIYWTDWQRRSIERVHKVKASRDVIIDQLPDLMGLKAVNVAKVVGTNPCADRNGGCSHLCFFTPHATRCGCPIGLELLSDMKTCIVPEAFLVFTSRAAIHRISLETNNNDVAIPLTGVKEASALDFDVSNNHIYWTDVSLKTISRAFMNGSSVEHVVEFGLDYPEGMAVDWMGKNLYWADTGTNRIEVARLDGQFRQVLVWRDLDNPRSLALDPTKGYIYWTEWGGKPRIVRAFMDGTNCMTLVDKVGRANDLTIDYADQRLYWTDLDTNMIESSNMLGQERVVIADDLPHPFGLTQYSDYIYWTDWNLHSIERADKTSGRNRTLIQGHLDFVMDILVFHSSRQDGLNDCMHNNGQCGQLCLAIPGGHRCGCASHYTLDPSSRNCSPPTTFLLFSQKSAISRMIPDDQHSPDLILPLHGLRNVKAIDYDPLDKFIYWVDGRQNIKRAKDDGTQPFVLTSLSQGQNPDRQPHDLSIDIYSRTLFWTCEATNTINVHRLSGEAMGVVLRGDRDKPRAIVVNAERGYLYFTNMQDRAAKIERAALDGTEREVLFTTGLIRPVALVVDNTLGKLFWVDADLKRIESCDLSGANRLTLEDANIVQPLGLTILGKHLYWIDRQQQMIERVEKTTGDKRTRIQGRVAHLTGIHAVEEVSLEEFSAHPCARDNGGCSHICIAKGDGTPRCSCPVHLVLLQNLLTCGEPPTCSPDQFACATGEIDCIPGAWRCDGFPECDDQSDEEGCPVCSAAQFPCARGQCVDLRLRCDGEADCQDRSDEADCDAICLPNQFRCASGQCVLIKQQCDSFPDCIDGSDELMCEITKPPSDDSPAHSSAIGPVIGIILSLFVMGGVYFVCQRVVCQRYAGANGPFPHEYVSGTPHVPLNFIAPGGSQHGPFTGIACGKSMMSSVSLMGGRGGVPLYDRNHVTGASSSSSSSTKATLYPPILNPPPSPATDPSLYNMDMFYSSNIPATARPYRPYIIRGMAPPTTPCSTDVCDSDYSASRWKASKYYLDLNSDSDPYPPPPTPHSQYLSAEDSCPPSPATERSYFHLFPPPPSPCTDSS
Chain of LRP6 (as used in Example 11) (O75581 20-1613 limits assumed): as the sequence (O75581 20-1613 limits assumed) above

KGGGSKEKNKTKPEKAKKKEGDPKPRASKEDNRAGSR (also called the oligopeptide) [Mesd oligopeptide KGGGSKEKNKTKPEKAKKKEGDPKPRASKEDNRAGSR]: the “fold reduction of 125I-DKK1 binding” value in test [1] was over 2 fold. The “fold reduction of 125I-Mesd binding” value in test [2] is about 10 fold.

B1: human Myc-tagged DKK1 (conditioned medium of HEK293 cells) (ligand, UniProt O94907 32-266, looked up, not shown: small tags and cut ends)
chain: TLNSVLNSNAIKNLPPPLGGAAGHPGSAVSAAPGILYPGGNKYQTIDNYQPYPCAEDEECGTDEYCASPTRGGDAGVQICLACRKRRKRCMRHAMCCPGNYCKNGICVSSDQNHFRGEIEETITESFGNDHSTLDGYSRRTTLSSKMYHTKGQEGSVCLRSSDCASGLCCARHFWSKICKPVLKEGQVCTKHRRKGSHGLEIFQRCYCGEGLSCRIQKDHHQASNSSRLHTCQRH
notes: also called Myc-DKK1; DKK1-Myc
As for B1, the binding result in test [3] is reported as “binds”.

B2: human recombinant DKK1 protein (ligand, UniProt O94907 32-266, looked up)
chain: TLNSVLNSNAIKNLPPPLGGAAGHPGSAVSAAPGILYPGGNKYQTIDNYQPYPCAEDEECGTDEYCASPTRGGDAGVQICLACRKRRKRCMRHAMCCPGNYCKNGICVSSDQNHFRGEIEETITESFGNDHSTLDGYSRRTTLSSKMYHTKGQEGSVCLRSSDCASGLCCARHFWSKICKPVLKEGQVCTKHRRKGSHGLEIFQRCYCGEGLSCRIQKDHHQASNSSRLHTCQRH
modifications: 125I-labelled (IODO-GEN method)
notes: Bought
Turning to B2, the binding result in test [4] is recorded as “binds”.

B3: Mesd (150-195) (peptide)
chain: QMYPGKGGGSKEKNKTKPEKAKKKEGDPKPRASKEDNRAGSRREDL
modifications: also: 125I-labelled where used as tracer
notes: also called truncated Mesd mutant containing the last 45 amino acids of C-terminal region; Mesd (150-195) peptide; not shown: N-terminal polyhistidine tail from pET-30a(+) if made like the other recombinant Mesd mutants
Take B3: the binding result in test [5] is listed as “binds”.

B4: Mesd (12-155) (other)
chain: RKKKDIRDYNDADMARLLEQWEKDDDIEEGDLPEHKRPSAPIDFSKLDPGKPESILKMTKKGKTLMMFVTVSGNPTEKETEEITSLWQGSLFNANYDVQRFIVGSDRAIFMLRDGSYAWEIKDFLVSQDRCAEVTLEGQMYPGK
notes: also called truncated Mesd mutant lacking both the N-terminal and C-terminal regions; not shown: N-terminal polyhistidine tail from pET-30a(+)
As for B4, the binding result in test [6] was “no binding”.

B5: Mesd (12-195) (other)
chain: RKKKDIRDYNDADMARLLEQWEKDDDIEEGDLPEHKRPSAPIDFSKLDPGKPESILKMTKKGKTLMMFVTVSGNPTEKETEEITSLWQGSLFNANYDVQRFIVGSDRAIFMLRDGSYAWEIKDFLVSQDRCAEVTLEGQMYPGKGGGSKEKNKTKPEKAKKKEGDRKPRASKEDNRAGSRREDL
notes: also called truncated Mesd mutant lacking the N-terminal region; not shown: N-terminal polyhistidine tail from pET-30a(+)
With B5, in test [6], the binding result is recorded as “binds”.

B6: recombinant mouse Mesd protein (wild type) (other, not shown: small tags and cut ends)
chain: ADTPGEATPPPRKKKDIRDYNDADMARLLEQWEKDDDIEEGDLPEHKRPSAPIDFSKLDPGKPESILKMTKKGKTLMMFVTVSGNPTEKETEEITSLWQGSLFNANYDVQRFIVGSDRAIFMLRDGSYAWEIKDFLVSQDRCAEVTLEGQMYPGKGGGSKEKNKTKPEKAKKKEGDRKPRASKEDNRAGSRREDL
modifications: 125I-labelled (IODO-GEN method) where used as tracer
notes: Expressed in E. coli BL21(DE3) from pET-30a(+); 'All the recombinant Mesd proteins lack the Mesd signal peptide'; also called Mesd polypeptide
As usually defined, the Kd is a measure of binding affinity in units of concentration. A lower Kd goes with higher affinity. Turning to B6, in test [7], the Kd is about 3.3 nM. Moreover, in test [1], the “fold reduction of 125I-DKK1 binding” value was over 2 fold. Besides, in test [2], the “fold reduction of 125I-Mesd binding” value is about 10 fold.
